The results in this text go back to US20130102031A1.

For assay [1], the target named is βNGF (human) (UniProt P01138). Description: HTRF competition: test antibody titrated against biotinylated Tanezumab (Streptavidin-XL665) for cryptate-labelled βNGF, 665 nm/620 nm ratio, three parameter fit. In general terms: Time-resolved FRET reads energy transfer from a long-lived donor to a nearby acceptor.
A further assay concerns the target T1, human IL-17a (human) (UniProt Q16552).
T1 sequence (looked up): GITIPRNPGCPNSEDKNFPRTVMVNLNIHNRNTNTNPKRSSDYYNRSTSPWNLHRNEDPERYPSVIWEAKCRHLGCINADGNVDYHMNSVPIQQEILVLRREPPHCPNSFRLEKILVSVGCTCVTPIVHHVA
Nature of the assay: KinExA 3000 solution equilibrium, N-curve analysis; human IL-17a on beads.

In assay [2] the target is βNGF (human) (UniProt P01138). Description: HTRF competition; test antibody titrated against biotinylated Tanezumab for labeled βNGF.

The IC50 is the concentration that gives 50% inhibition. As usually defined, the Kd is the free concentration of one partner at which half of the binding sites on the other are occupied at equilibrium, for simple one-to-one binding.

Chain of UniProt P01138 (P01138 122-239 limits assumed): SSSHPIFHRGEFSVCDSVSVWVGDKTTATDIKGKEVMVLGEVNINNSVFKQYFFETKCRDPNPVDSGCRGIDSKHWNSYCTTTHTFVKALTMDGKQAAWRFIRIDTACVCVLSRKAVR

As for NEG CNT (antibody), in the assay with βNGF (human) [1], the IC50 was found to be 4910 nM.

B1: anti-IL17a antibody containing the HC lacking the CDR3 insertion (encoded by SEQ ID NO: 29) (antibody, part only; not given: light chain and constant region, V domains shown, part only)
VH: EVQLVESGGGLVQPGGSLRLSCAASGFTFSNHWMNWVRQTPGKGLEWVAAINEDGSEKYYVGSVKVRFTISRDNAKNSLYLQMNSLRVEDTAVYYCARDYYDILTDYYIHYWYFDLWGRGTLVTVSSASTKGPSVFPLAP
In the assay with human IL-17a (human), B1 yielded a Kd of 0.067 nM.

B2: anti-NGF antibody containing the HC with a CDR1 insertion encoded by SEQ ID NO: 19 (antibody, part only; not given: light chain and constant region, V domains shown, part only)
VH: QVQLVQSGAEVKKPGSSVKVSCKASGDTFSNYATGDTFSNYAISWVRQAPGQGFEWMGGIIPIFGIANYAQKFQGRVTITADESTSTAYMELSSLRSEDTAVYYCARGPEYYDYVWGSYRYNYFDYWGQGTLVTVSS
In turn, B2 showed a fold more potent IC50 than the HC encoded by SEQ ID NO: 16 in the assay with βNGF (human) [2] of 6 fold. Moreover, the IC50 with βNGF (human) [1] turned out to be 181 nM.
